Tests used:
[1] = biological target: recombinant CD81-LEL protein (large extracellular loop of human CD81) with a GST tag (human) (UniProt P60033); experiment: DPI, E2 protein alone added to immobilised CD81
[2] = biological target: recombinant CD81-LEL protein (large extracellular loop of human CD81) with a GST tag (human) (UniProt P60033); experiment: DPI, E2 protein added to immobilised CD81 together with small molecule 30930
[3] = biological target: recombinant CD81-LEL protein (large extracellular loop of human CD81) with a GST tag (human) (UniProt P60033); experiment: DPI, E2 protein added to immobilised CD81 together with small molecule 93033
[4] = biological target: recombinant CD81-LEL protein (large extracellular loop of human CD81) with a GST tag (human) (UniProt P60033); experiment: DPI, E2 protein added to immobilised CD81 together with small molecule 165665
[5] = biological target: recombinant CD81-LEL protein (large extracellular loop of human CD81) with a GST tag (human) (UniProt P60033); experiment: DPI, E2 protein added to immobilised CD81 together with small molecule 689002
[6] = biological target: recombinant CD81-LEL protein (large extracellular loop of human CD81) with a GST tag (human) (UniProt P60033); experiment: DPI, E2 protein added to immobilised CD81 together with small molecules 93033 and 16631
[7] = biological target: recombinant CD81-LEL protein (large extracellular loop of human CD81) with a GST tag (human) (UniProt P60033); experiment: DPI, E2 protein added to immobilised CD81 together with small molecules 689002 and 93033
[8] = biological target: recombinant CD81-LEL protein (large extracellular loop of human CD81) with a GST tag (human) (UniProt P60033); experiment: DPI, E2 protein added to immobilised CD81 together with small molecules 93033 and 165665
[9] = biological target: recombinant CD81-LEL protein (large extracellular loop of human CD81) with a GST tag (human) (UniProt P60033); experiment: DPI, E2 protein added to immobilised CD81 together with small molecules 30930 and 68365 (so in the source)

HCV E2 protein (ligand)
DPI Binding Response (Radians) [1]: 4.14 Radians
DPI Binding Response (Radians) [2]: 2.53 Radians
DPI Binding Response (Radians) [3]: 0.255 Radians
DPI Binding Response (Radians) [4]: -0.0047 Radians
DPI Binding Response (Radians) [5]: 2.7 Radians
DPI Binding Response (Radians) [6]: 0.531 Radians
DPI Binding Response (Radians) [7]: 0.401 Radians
DPI Binding Response (Radians) [8]: 0.765 Radians
DPI Binding Response (Radians) [9]: 1.45 Radians

Reference: patent publication US20150328329A1, “LIGANDS THAT TARGET HCV-E2 BINDING SITES ON CD81 AND THERAPEUTIC METHODS USING THEM” (American University of Cairo, priority 2012, published 2015)
